Data as given in the RNAGym collection of RNA variant scans (doi:10.7554/elife.80360).

B1: CPEB3 Ribozyme (parent)
chain: GGGGGCCACAGCAGAAGCGUUCACGUCGCGGCCCCUGUCAGAUUCUGGUGAAUCUGCGAAUUCUGCUGU

Variants of: B1
Assay: self-cleavage, relative activity (ratio to wild type); higher = more cleavage; co-transcriptional

Variant | self-cleavage
C27G U67C | 0.247
C27G U67A | 0.166
C27G U67G | 0.255
C27U U53C | 0.169
C27G G31C | 0.174
C27G G31A | 0.174
C27U U49G | 0.421
C27A G28U | 0.187
C27A G28C | 0.158
C27A G28A | 0.18
C27A C63A | 0.227
C27U G31A | 0.266
C27U G31U | 0.192
C27U G68A | 0.614
C27U G68U | 0.432
U26G U49G | 0.907
U26G U49C | 0.924
C27G C54G | 0.169
C27G C54U | 0.151
C27A C29G | 0.195
C27A G31C | 0.181
C27G C39U | 0.138
C27U G30A | 0.224
C27U G30C | 0.164

Variant | self-cleavage
C27U G30U | 0.181
C27A U53C | 0.213
C27A U53A | 0.344
C27G U44G | 0.155
C27A U55A | 0.237
C27A U55C | 0.272
C27A U55G | 0.226
C27U U36A | 0.167
C27U U36G | 0.188
C27G C45G | 0.144
C27G C35G | 0.171
C27G C35A | 0.124
C27G C35U | 0.179
C27G G48A | 0.156
U26G U61G | 0.558
C27U U61C | 0.14
C27A G68A | 0.853
C27U C39A | 0.186
C27U C39G | 0.164
C27A U49G | 0.59
C27A U49C | 0.702
C27A C33G | 0.224
C27A C33U | 0.539
C27A C33A | 0.288

Variant | self-cleavage
C27G U69A | 0.267
C27G U69C | 0.374
C27G U36A | 0.18
G28A C66G | 0.196
C27G A59C | 0.151
C27G A59G | 0.259
C27G A59U | 0.216
C27G G37C | 0.162
C27A C66A | 0.334
C27A C66G | 0.327
C27G G28U | 0.154
C27G G28C | 0.13
U26G U53G | 0.778
U26G U53C | 0.768
U26G U53A | 0.782
G28A G37A | 0.157
G28A G37U | 0.186
G28A G37C | 0.193
C27G G58C | 0.231
C27G G58U | 0.193
C27A C57A | 0.189
C27A C57U | 0.173
C27A A40C | 0.256
C27A A40G | 0.452

Variant | self-cleavage
C27A A40U | 0.304
C27U U69G | 0.457
C27U U69C | 0.769
G28A A59U | 0.198
C27A C45G | 0.578
C27A C45A | 0.504
C27U A42C | 0.27
C27U A42G | 0.174
C27A G30C | 0.138
C27A G30A | 0.176
C27U U62A | 0.217
C27U G50A | 0.371
C27U G50U | 0.396
G28A C32U | 0.184
G28A C32A | 0.19
G28A C32G | 0.139
U26G U62C | 0.674
U26G U55G | 0.404
U26G U67A | 0.854
U26G U67C | 0.91
U26G U67G | 0.968
C27G C33G | 0.241
C27A G56C | 0.187
C27A G56U | 0.371

Variant | self-cleavage
C27U G41U | 0.186
C27U G41C | 0.195
C27A G47U | 0.738
C27A G47C | 0.72
C27U U43A | 0.188
C27U U43G | 0.14
G28A G41C | 0.177
C27A G58A | 0.377
C27A G58U | 0.727
C27G U55G | 0.159
C27G U55A | 0.142
C27A G41C | 0.149
C27A G41A | 0.196
C27G G50C | 0.141
C27G G50A | 0.17
C27G G50U | 0.175
C27G C32A | 0.201
C27G C32G | 0.134
C27G C32U | 0.207
C27A G50A | 0.587
C27A G50U | 0.647
C27A G50C | 0.493
C27A U64G | 0.319
C27A U64A | 0.286

Variant | self-cleavage
C27A U67C | 0.66
C27A U67A | 0.685
C27U A51G | 0.376
C27U A51C | 0.259
C27U A51U | 0.303
C27G A42G | 0.15
C27G A42C | 0.177
C27U G47C | 0.436
C27U G47U | 0.431
C27U A40G | 0.192
C27U A40U | 0.207
C27A U61C | 0.191
C27A U61G | 0.367
G28A A40G | 0.214
G28A A40U | 0.167
C27G A40C | 0.258
C27A C34A | 0.164
C27A C34G | 0.219
C27A C34U | 0.52
C27G G30C | 0.279
C27G G30U | 0.149
C27G G30A | 0.228
C27A U62C | 0.365
C27A U62G | 0.241

Variant | self-cleavage
C27A U62A | 0.288
C27U C29A | 0.192
C27A A60U | 0.249
C27A A60G | 0.253
G28A U36G | 0.133
G28A U36C | 0.128
C27G G65A | 0.141
C27A U69C | 0.955
C27A U69A | 0.843
C27A U69G | 0.825
C27G U61A | 0.19
C27G A52U | 0.132
C27G A52G | 0.24
C27G A52C | 0.191
G28A U38C | 0.196
G28A U38G | 0.147
C27G G47C | 0.226
G28A G31C | 0.208
G28A G50U | 0.159
G28A G50A | 0.195
C27A A59C | 0.247
C27A A59U | 0.245
C27G C66U | 0.156
C27G C66A | 0.174

Variant | self-cleavage
C27A U38A | 0.26
C27A U38C | 0.324
G28A A42C | 0.177
G28A A42G | 0.131
G28A A42U | 0.137
C27G C29G | 0.208
G28A C33U | 0.22
G28A C33G | 0.195
G28A C33A | 0.18
C27A C32A | 0.241
C27A C32G | 0.155
G28A G56A | 0.164
G28A G56U | 0.167
G28A G56C | 0.235
C27G A51U | 0.15
C27G A51G | 0.217
C27G U43C | 0.239
C27G G56C | 0.135
C27A A52C | 0.556
G28A A51U | 0.183
G28A A51C | 0.234
C27G C57A | 0.131
C27G C57G | 0.175
C27U G37C | 0.147

Variant | self-cleavage
C27U G37U | 0.0803
C27U U67A | 0.276
C27U U67C | 0.332
C27U U44C | 0.15
C27U U44G | 0.198
C27U U44A | 0.292
C27U | 0.417
C27A | 0.711
C27G | 0.197
G28A C63G | 0.178
G28A C63A | 0.182
C27G U62A | 0.122
C27G U62G | 0.241
C27G U62C | 0.257
C27U C33A | 0.271
C27U C33G | 0.206
C27U C33U | 0.345
C27G C63U | 0.209
C27G C63G | 0.225
C27A C35U | 0.441
C27A C35A | 0.209
C27U G65U | 0.148
C27U G65C | 0.196
C27U G65A | 0.172

Variant | self-cleavage
C27U G28U | 0.187
C27U G28C | 0.218
C27A U44A | 0.439
C27A U44C | 0.354
C27A U44G | 0.295
C27U U38C | 0.268
C27U U38A | 0.281
C27U U55A | 0.184
C27U U55C | 0.143
C27U C66U | 0.203
C27U C66G | 0.262
C27U C66A | 0.179
U26G U64C | 0.756
U26G U64A | 0.692
G28A U43A | 0.156
G28A U43C | 0.219
G28A U43G | 0.0959
C27U G56A | 0.308
C27U G56C | 0.194
G28A C34A | 0.218
G28A G68C | 0.268
G28A G68U | 0.195
G28A C35U | 0.203
G28A C35A | 0.17

Variant | self-cleavage
G28A G47C | 0.212
G28A G47U | 0.262
G28A C54U | 0.194
G28A C54G | 0.177
C27A A42U | 0.379
C27A A42G | 0.419
C27A A42C | 0.286
C27U C57A | 0.242
C27U C57G | 0.166
C27U C54A | 0.18
C27U C54U | 0.328
C27U C54G | 0.195
C27U C63U | 0.17
C27U G48C | 0.397
C27A G37U | 0.17
C27A G37C | 0.17
C27U A60G | 0.254
C27U A60C | 0.192
G28A G65C | 0.172
C27A U43G | 0.226
C27A U43A | 0.18
C27G U53A | 0.221
C27G U53G | 0.267
C27G U53C | 0.134

Variant | self-cleavage
C27A U36G | 0.146
C27A U36C | 0.261
C27G U64A | 0.215
C27G U64G | 0.25
C27G G68U | 0.309
C27G G68C | 0.234
C27U C32A | 0.227
C27U C32G | 0.186
C27U C32U | 0.403
G28A C39A | 0.198
G28A C39U | 0.17
C27A C39G | 0.346
C27A C39U | 0.339
C27A C39A | 0.205
C27G A60G | 0.204
C27G A60U | 0.181
G28A C45G | 0.196
G28A C45A | 0.184
G28A C29U | 0.177
G28A C29G | 0.117
G28A C29A | 0.143
G28A A60G | 0.168
G28A A60U | 0.199
G28A A60C | 0.197

Variant | self-cleavage
C27G U49G | 0.112
C27G U49A | 0.209
C27G U49C | 0.22
C27A G65U | 0.202
C27A G65C | 0.288
C27A G65A | 0.255
G28A C57G | 0.17
G28A C57U | 0.137
G28A C57A | 0.136
C27G G41U | 0.151
C27G G41A | 0.154
U26G U69A | 1
U26G U69C | 1.04
U26G U69G | 1
G28A G58U | 0.2
G28A G58A | 0.189
G28A G58C | 0.231
C27U C34A | 0.201
C27U C34U | 0.415
G28A G30C | 0.167
C27U A52C | 0.302
C27U A52G | 0.415
C27U A52U | 0.291
C27U U64C | 0.245

Variant | self-cleavage
C27U U64G | 0.197
C27U C35A | 0.158
C27U C35U | 0.318
G28A A52G | 0.234
C27A U46G | 0.725
C27A U46A | 0.736
C27U G58C | 0.351
C27U G58A | 0.237
C27U G58U | 0.526
C27G C34U | 0.223
C27G C34G | 0.142
C27U U46G | 0.372
C27U U46A | 0.567
C27U U46C | 0.301
C27G U46A | 0.162
C27G U46C | 0.181
C27G U46G | 0.188
C27U C45G | 0.243
C27G U38C | 0.243
C27G U38A | 0.191
C27A C54A | 0.25
C27A A51U | 0.577
